Laboratory results from article PMC4666130 (Molecular Biology of the Cell, 2015).

Target: T1, claudin-19 (human CLDN19), expressed in HEK293 cells (human, UniProt Q8N6F1 1-224)
T1 sequence (looked up): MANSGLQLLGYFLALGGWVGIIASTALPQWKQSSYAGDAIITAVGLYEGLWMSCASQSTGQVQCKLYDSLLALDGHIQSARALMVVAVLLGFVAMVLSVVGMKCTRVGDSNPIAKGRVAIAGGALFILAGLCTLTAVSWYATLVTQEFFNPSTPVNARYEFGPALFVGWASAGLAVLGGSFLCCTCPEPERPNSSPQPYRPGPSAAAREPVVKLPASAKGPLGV
Assay: cross-linking

stoichiometry N: 1 claudin-16 per claudin-19
B1: claudin-16 (human CLDN16), expressed in HEK293 cells (natural protein, UniProt Q9Y5I7 1-235, looked up)
chain: MRDLLQYIACFFAFFSAGFLIVATWTDCWMVNADDSLEVSTKCRGLWWECVTNAFDGIRTCDEYDSILAEHPLKLVVTRALMITADILAGFGFLTLLLGLDCVKFLPDEPYIKVRICFVAGATLLIAGTPGIIGSVWYAVDVYVERSTLVLHNIFLGIQYKFGWSCWLGMAGSLGCFLAGAVLTCCLYLFKDVGPERNYPYSLRKAYSAAGVSMAKSYSAPRTETAKMYAVDTRV
